Reference: patent publication US20160272683A1 (Novo Nordisk, published 2016)
Numbered stars: 1 amine (or outer) side, 2 acyl side, 3 side chain; on linkers, the order of the positions; unused ones are H or OH. * marks the point of attachment. C20 diacid = O=C(O)CCCCCCCCCCCCCCCCCCC(=O)*; C18 diacid = O=C(O)CCCCCCCCCCCCCCCCC(=O)*; γGlu = O=C(O)[C@H](CCC(=O)[*:2])N[*:1]; AEEA = NCCOCCOCC(=O)O

T1: human amylin 3(a) receptor (human calcitonin receptor co-expressed with RAMP-3) (human, UniProt P30988 25-474; O60896 24-148, limits assumed)
T1 sequence (looked up) 1: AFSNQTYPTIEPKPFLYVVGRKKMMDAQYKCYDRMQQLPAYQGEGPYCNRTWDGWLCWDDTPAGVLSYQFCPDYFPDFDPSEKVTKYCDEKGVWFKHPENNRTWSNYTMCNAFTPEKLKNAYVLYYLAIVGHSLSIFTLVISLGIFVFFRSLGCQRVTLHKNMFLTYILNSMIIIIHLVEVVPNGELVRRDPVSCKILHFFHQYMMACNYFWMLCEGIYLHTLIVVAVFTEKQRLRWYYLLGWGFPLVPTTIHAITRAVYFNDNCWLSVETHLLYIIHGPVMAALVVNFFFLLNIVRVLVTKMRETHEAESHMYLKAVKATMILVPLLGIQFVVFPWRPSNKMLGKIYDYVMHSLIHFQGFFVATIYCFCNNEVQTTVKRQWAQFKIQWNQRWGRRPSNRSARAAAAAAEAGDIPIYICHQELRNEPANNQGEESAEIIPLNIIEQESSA
T1 sequence (looked up) 2: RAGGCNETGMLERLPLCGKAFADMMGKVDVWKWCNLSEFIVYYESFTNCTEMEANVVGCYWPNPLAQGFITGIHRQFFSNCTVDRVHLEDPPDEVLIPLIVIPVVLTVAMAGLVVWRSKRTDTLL

T2: human calcitonin receptor (human, UniProt P30988 25-474)
T2 sequence (looked up): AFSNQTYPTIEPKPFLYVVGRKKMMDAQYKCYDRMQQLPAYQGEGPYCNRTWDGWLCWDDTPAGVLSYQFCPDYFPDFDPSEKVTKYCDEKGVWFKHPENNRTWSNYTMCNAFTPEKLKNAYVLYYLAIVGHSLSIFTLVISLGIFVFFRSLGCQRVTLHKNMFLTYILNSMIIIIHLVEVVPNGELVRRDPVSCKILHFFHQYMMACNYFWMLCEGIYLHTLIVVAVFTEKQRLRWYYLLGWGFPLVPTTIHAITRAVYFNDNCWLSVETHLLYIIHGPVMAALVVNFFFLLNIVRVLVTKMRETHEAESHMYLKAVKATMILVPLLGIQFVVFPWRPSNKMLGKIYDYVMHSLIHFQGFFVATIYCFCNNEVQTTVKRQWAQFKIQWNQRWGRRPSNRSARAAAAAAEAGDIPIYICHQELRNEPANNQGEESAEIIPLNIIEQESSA

T3: human amylin 3(a) receptor (human calcitonin receptor co-expressed with RAMP-3) on BHK570/CRE-luc cells (human, UniProt P30988 25-474; O60896 24-148)
T3 sequence (looked up) 1: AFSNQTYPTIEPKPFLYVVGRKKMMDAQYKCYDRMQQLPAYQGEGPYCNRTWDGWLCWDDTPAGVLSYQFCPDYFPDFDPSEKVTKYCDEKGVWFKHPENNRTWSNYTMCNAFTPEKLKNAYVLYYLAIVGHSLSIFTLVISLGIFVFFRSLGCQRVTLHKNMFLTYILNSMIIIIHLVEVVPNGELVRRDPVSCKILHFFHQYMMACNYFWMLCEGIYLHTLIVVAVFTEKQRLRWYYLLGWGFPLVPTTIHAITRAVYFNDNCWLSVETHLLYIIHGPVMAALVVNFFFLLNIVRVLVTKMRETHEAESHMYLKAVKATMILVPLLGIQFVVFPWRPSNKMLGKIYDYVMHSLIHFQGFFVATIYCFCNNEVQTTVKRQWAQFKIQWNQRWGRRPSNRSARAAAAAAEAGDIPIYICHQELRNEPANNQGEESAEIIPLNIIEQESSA
T3 sequence (looked up) 2: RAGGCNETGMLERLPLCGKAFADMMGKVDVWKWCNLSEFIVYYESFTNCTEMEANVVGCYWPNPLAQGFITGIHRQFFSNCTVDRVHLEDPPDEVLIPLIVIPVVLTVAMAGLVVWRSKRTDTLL

T4: human calcitonin receptor on BHK570/CRE-luc cells (human, UniProt P30988 25-474)
T4 sequence (looked up): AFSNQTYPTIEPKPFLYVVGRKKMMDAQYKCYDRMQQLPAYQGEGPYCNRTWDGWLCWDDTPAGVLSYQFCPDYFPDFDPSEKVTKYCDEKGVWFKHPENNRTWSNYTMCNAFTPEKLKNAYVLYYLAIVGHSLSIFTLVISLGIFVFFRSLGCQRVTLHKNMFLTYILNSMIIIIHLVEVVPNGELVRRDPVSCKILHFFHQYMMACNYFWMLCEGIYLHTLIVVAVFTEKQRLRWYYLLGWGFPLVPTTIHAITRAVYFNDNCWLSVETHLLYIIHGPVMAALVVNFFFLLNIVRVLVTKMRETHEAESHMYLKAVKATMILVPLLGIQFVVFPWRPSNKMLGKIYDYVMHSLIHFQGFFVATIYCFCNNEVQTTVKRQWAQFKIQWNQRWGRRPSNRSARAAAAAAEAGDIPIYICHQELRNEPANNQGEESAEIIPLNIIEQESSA


Key:
Test in all cases: cell-based or functional assay
[1] = molecular target: T1, human amylin 3(a) receptor (human …)
[2] = molecular target: T2, human calcitonin receptor
[3] = molecular target: T3, human amylin 3(a) receptor (human …)
[4] = molecular target: T4, human calcitonin receptor on …

Binder	hAmylin-R funct. EC50 (pM) [1] [pM]	hCTR funct. EC50 (pM) [2] [pM]	hAmylin-R funct. EC50 (pM), tested with HSA [3] [pM]	hCTR funct. EC50 (pM), tested with HSA [4] [pM]
{C20 diacid-γGlu-AEEA-AEEA-AEEA-AEEA-AEEA}-ASELSTAALGRLSAELHELATLPRTETGSGSP-NH2 [[N-terminal(C20 diacid-gGlu-5xOEG), des1, 30S, 31G]mimylin]	15	10	–	–
{C20 diacid-γGlu-AEEA-AEEA-AEEA}-ASELSTAALGRLSAELHELATLPRTETGSGSP-NH2 [[N-terminal(C20 diacid-gGlu-3xOEG), des1, 30S, 31G]mimylin]	18	11	–	–
{C18 diacid}-EASELSTAALGRLSAELHELATLPRTETGSGSP-NH2 [[N-terminal(C18 diacid), 30S, 31G]mimylin]	–	–	39	19
{C20 diacid-γGlu}-EASELSTAALGRLSAELHELATYPRTETGSGSP-NH2 (SMILES CC(C)C[C@H](NC(=O)[C@H](C)NC(=O)[C@H](C)NC(=O)[C@@H](NC(=O)[C@H](CO)NC(=O)[C@H](CC(C)C)NC(=O)[C@H](CCC(=O)O)NC(=O)[C@H](CO)NC(=O)[C@H](C)NC(=O)[C@H](CCC(=O)O)NC(=O)CC[C@H](NC(=O)CCCCCCCCCCCCCCCCCCC(=O)O)C(=O)O)[C@@H](C)O)C(=O)NCC(=O)N[C@@H](CCCNC(=N)N)C(=O)N[C@@H](CC(C)C)C(=O)N[C@@H](CO)C(=O)N[C@@H](C)C(=O)N[C@@H](CCC(=O)O)C(=O)N[C@@H](CC(C)C)C(=O)N[C@@H](Cc1c[nH]cn1)C(=O)N[C@@H](CCC(=O)O)C(=O)N[C@@H](CC(C)C)C(=O)N[C@@H](C)C(=O)N[C@H](C(=O)N[C@@H](Cc1ccc(O)cc1)C(=O)N1CCC[C@H]1C(=O)N[C@@H](CCCNC(=N)N)C(=O)N[C@H](C(=O)N[C@@H](CCC(=O)O)C(=O)N[C@H](C(=O)NCC(=O)N[C@@H](CO)C(=O)NCC(=O)N[C@@H](CO)C(=O)N1CCC[C@H]1C(N)=O)[C@@H](C)O)[C@@H](C)O)[C@@H](C)O) [[N-terminal(C20 diacid-gGlu), 23Y, 30S, 31G]mimylin]	–	–	143	74
{C18 diacid-γGlu}-ASELSTAALGRLSAELHELATLPRTETGSGSP-NH2 [[N-terminal(C18 diacid-gGlu), des1, 30S, 31G]mimylin]	16	17	–	–
{C20 diacid-γGlu-AEEA-AEEA-AEEA-AEEA}-ASELSTAALGRLSAELHELATLPRTETGSGSP-NH2 [[N-terminal(C20 diacid-gGlu-4xOEG), des1, 30S, 31G]mimylin]	24	13	–	–
{C18 diacid}-EAPPLSTAVLGRLSAELHELATLPRTETGPESP-NH2 (SMILES CC(C)C[C@H](NC(=O)[C@H](CCC(=O)O)NC(=O)[C@H](Cc1c[nH]cn1)NC(=O)[C@H](CC(C)C)NC(=O)[C@H](CCC(=O)O)NC(=O)[C@H](C)NC(=O)[C@H](CO)NC(=O)[C@H](CC(C)C)NC(=O)[C@H](CCCNC(=N)N)NC(=O)CNC(=O)[C@H](CC(C)C)NC(=O)[C@@H](NC(=O)[C@H](C)NC(=O)[C@@H](NC(=O)[C@H](CO)NC(=O)[C@H](CC(C)C)NC(=O)[C@@H]1CCCN1C(=O)[C@@H]1CCCN1C(=O)[C@H](C)NC(=O)[C@H](CCC(=O)O)NC(=O)CCCCCCCCCCCCCCCCC(=O)O)[C@@H](C)O)C(C)C)C(=O)N[C@@H](C)C(=O)N[C@H](C(=O)N[C@@H](CC(C)C)C(=O)N1CCC[C@H]1C(=O)N[C@@H](CCCNC(=N)N)C(=O)N[C@H](C(=O)N[C@@H](CCC(=O)O)C(=O)N[C@H](C(=O)NCC(=O)N1CCC[C@H]1C(=O)N[C@@H](CCC(=O)O)C(=O)N[C@@H](CO)C(=O)N1CCC[C@H]1C(N)=O)[C@@H](C)O)[C@@H](C)O)[C@@H](C)O) [[N-terminal(C18 diacid), 3P, 4P, 9V]mimylin]	12	6	–	–
{C20 diacid}-EASELSTAALGRLSAELHELATLPRTETGSGSP-NH2 [[N-terminal(C20 diacid), 30S, 31G]mimylin]	–	–	61	26
